Results reported in patent publication US20080254026A1.

Legend:
Assay in all cases: cell-based or functional assay
[1] = target: human CD40 on normal human B cells (PBMC or purified B cells) (human) (UniProt P25942)
[2] = target: human CD40 on the surface of B cells within PBMC from normal human subjects (human) (UniProt P25942)
[3] = target: human CD40 antigen on the surface of B cells in human PBMC (human) (UniProt P25942)
[4] = target: human CD40 antigen expressed on the surface of cells (human) (UniProt P25942)
Sequence of human CD40 antigen expressed on the surface of cells (human) (P25942 20-277): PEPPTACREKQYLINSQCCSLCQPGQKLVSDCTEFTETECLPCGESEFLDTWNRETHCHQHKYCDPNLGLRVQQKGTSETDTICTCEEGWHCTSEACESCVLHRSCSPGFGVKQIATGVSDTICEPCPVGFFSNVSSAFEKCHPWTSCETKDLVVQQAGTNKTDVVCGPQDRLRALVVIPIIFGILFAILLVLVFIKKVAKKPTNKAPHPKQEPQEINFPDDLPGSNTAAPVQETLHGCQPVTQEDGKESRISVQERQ

CD20 (human) = CD20 (human) (UniProt P11836)
Sequence of CD20 (human) (P11836 whole entry): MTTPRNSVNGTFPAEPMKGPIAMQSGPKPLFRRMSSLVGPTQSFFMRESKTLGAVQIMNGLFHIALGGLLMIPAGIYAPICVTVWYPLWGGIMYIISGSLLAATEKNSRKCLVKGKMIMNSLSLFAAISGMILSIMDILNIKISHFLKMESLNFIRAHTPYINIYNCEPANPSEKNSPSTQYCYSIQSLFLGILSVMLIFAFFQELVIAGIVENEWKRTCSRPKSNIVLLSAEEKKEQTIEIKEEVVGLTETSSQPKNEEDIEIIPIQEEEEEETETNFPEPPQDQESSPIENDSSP

[5] = target: human CD20 on the surface of lymphoma cell lines (Ramos or Daudi) (human) (UniProt P11836)
Sequence of human CD20 on the surface of lymphoma cell lines (Ramos or Daudi) (human) (P11836 whole entry): as above

Sequence of human CD40 antigen on the surface of B cells in human PBMC (human) (P25942 20-277): as the sequence (P25942 20-277) above
Sequence of human CD40 on the surface of B cells within PBMC from normal human subjects (human) (P25942 20-277): as above
Sequence of human CD40 on normal human B cells (PBMC or purified B cells) (human) (P25942 20-277): as above
Sequence of CD40 ligand on formaldehyde-fixed CHO transfectant cells (P29965 whole entry): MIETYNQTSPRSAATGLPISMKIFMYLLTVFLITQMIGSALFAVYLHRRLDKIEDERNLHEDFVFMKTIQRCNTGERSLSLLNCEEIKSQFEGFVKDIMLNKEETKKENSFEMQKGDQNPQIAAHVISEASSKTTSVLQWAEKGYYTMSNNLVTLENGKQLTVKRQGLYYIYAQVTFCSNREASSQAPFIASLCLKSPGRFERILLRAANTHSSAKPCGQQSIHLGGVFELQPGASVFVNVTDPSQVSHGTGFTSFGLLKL
Sequence of CD40 ligand expressed on formaldehyde-fixed CHO cells (P29965 whole entry): as above

Substance: CD40 ligand on formaldehyde-fixed CHO transfectant cells (from UniProt P29965 1-261)
- Average Stimulation Index (SI), B cells + CHO-CD40L [1]: 145
- S. index (1) = CPM (B cells + CHO-CD40L)/CPM (B cells alone); B cell-004 Donor 1 [1]: 7.49
- S. index (1) = CPM (B cells + CHO-CD40L)/CPM (B cells alone); B cell-004 Donor 2 [1]: 336
- S. index (1) = CPM (B cells + CHO-CD40L)/CPM (B cells alone); B cell-005 Donor 3 [1]: 92

Substance: CD40 ligand expressed on formaldehyde-fixed CHO cells (from UniProt P29965 1-261)
- Average SI of PBMC; PBMC + CHO-CD40L, index (1) [2]: 11.9
- Average Stimulation index; PBMC + CHO-CD40L, S. index (1) [2]: 22
- PBMC + CHO-CD40L, CPM; Immoblize-004 [2]: 11700 CPM
- PBMC + CHO-CD40L, CPM; PBMC-012 [2]: 6810 CPM
- PBMC + CHO-CD40L, CPM; PBMC-025 Donor#1 [2]: 42300 CPM
- PBMC + CHO-CD40L, CPM; PBMC-025 Donor#2 [2]: 15000 CPM
- PBMC + CHO-CD40L, CPM; PBMC-026 Donor#1 [2]: 18300 CPM
- PBMC + CHO-CD40L, CPM; PBMC-026 Donor#2 [2]: 18100 CPM
- PBMC + CHO-CD40L, CPM; PBMC-027 Donor#1 [2]: 13000 CPM
- PBMC + CHO-CD40L, CPM; PBMC-027 Donor#2 [2]: 11900 CPM
- PBMC + CHO-CD40L, CPM; PBMC-028 Donor#1 [2]: 22500 CPM
- PBMC + CHO-CD40L, CPM; PBMC-028 Donor#2 [2]: 54900 CPM
- PBMC + CHO-CD40L, CPM; PBMC-029 Donor#1 [2]: 10100 CPM
- PBMC + CHO-CD40L, CPM; PBMC-029 Donor#2 [2]: 23100 CPM
- PBMC + CHO-CD40L, CPM; PBMC-030 Donor#1 [2]: 57200 CPM
- PBMC + CHO-CD40L, CPM; PBMC-030 Donor#2 [2]: 53900 CPM
- PBMC + CHO-CD40L, CPM; PBMC-032 Donor#1 [2]: 15300 CPM
- PBMC + CHO-CD40L, S. index (1); Immoblize-004 [2]: 13.7
- PBMC + CHO-CD40L, S. index (1); PBMC-012 [2]: 30.3
- PBMC + CHO-CD40L, index (1); PBMC-025 Donor#1 [2]: 10.4
- PBMC + CHO-CD40L, index (1); PBMC-025 Donor#2 [2]: 6.63
- PBMC + CHO-CD40L, index (1); PBMC-026 Donor#1 [2]: 8.78
- PBMC + CHO-CD40L, index (1); PBMC-026 Donor#2 [2]: 26.7
- PBMC + CHO-CD40L, index (1); PBMC-027 Donor#1 [2]: 4.75
- PBMC + CHO-CD40L, index (1); PBMC-027 Donor#2 [2]: 8.89
- PBMC + CHO-CD40L, index (1); PBMC-028 Donor#1 [2]: 5.26
- PBMC + CHO-CD40L, index (1); PBMC-028 Donor#2 [2]: 25.6
- PBMC + CHO-CD40L, index (1); PBMC-029 Donor#1 [2]: 16.5
- PBMC + CHO-CD40L, index (1); PBMC-029 Donor#2 [2]: 2.99
- PBMC + CHO-CD40L, index (1); PBMC-030 Donor#1 [2]: 13.7
- PBMC + CHO-CD40L, index (1); PBMC-030 Donor#2 [2]: 16.2
- PBMC + CHO-CD40L, index (1); PBMC-032 Donor#1 [2]: 8.45
- Average SI of PBMC; PBMC + CHO-CD40L, index (1) [3]: 5.09
- PBMC proliferation (3H-thymidine), CPM of PBMC + CHO-CD40L; PBMC-010 [3]: 5280 CPM
- PBMC proliferation (3H-thymidine), CPM of PBMC + CHO-CD40L; PBMC-011 Donor#1 [3]: 8250 CPM
- PBMC proliferation (3H-thymidine), CPM of PBMC + CHO-CD40L; PBMC-011 Donor#2 [3]: 11600 CPM
- PBMC proliferation (3H-thymidine), CPM of PBMC + CHO-CD40L; PBMC-011 Donor#3 [3]: 7960 CPM
- PBMC proliferation (3H-thymidine), CPM of PBMC + CHO-CD40L; PBMC-011 Donor#4 [3]: 14300 CPM
- PBMC proliferation (3H-thymidine), CPM of PBMC + CHO-CD40L; PBMC-014 [3]: 8790 CPM
- PBMC proliferation (3H-thymidine), CPM of PBMC + CHO-CD40L; PBMC-015 Donor#1 [3]: 12900 CPM
- PBMC proliferation (3H-thymidine), CPM of PBMC + CHO-CD40L; PBMC-015 Donor#2 [3]: 19100 CPM
- PBMC proliferation (3H-thymidine), CPM of PBMC + CHO-CD40L; PBMC-015 Donor#3 [3]: 19800 CPM
- PBMC proliferation (3H-thymidine), CPM of PBMC + CHO-CD40L; PBMC-016 [3]: 15800 CPM
- index (1) = (PBMC + CHO-CD40L)/PBMC; PBMC-010 [3]: 3.73
- index (1) = (PBMC + CHO-CD40L)/PBMC; PBMC-011 Donor#1 [3]: 3.86
- index (1) = (PBMC + CHO-CD40L)/PBMC; PBMC-011 Donor#2 [3]: 4.87
- index (1) = (PBMC + CHO-CD40L)/PBMC; PBMC-011 Donor#3 [3]: 2.46
- index (1) = (PBMC + CHO-CD40L)/PBMC; PBMC-011 Donor#4 [3]: 3.41
- index (1) = (PBMC + CHO-CD40L)/PBMC; PBMC-014 [3]: 3.74
- index (1) = (PBMC + CHO-CD40L)/PBMC; PBMC-015 Donor#1 [3]: 3.94
- index (1) = (PBMC + CHO-CD40L)/PBMC; PBMC-015 Donor#2 [3]: 3.14
- index (1) = (PBMC + CHO-CD40L)/PBMC; PBMC-015 Donor#3 [3]: 8
- index (1) = (PBMC + CHO-CD40L)/PBMC; PBMC-016 [3]: 13.8
- average stimulation index (SI), proliferation of total PBMC [4]: 7.41

Substance: rituximab (Rituxan; IDEC-C2B8) (antibody)
- % lysis (ADCC-012 Calcein AM, huNK E:T 10, 1 ug/ml) (CD20 (human)): 66%
- % lysis - % lysis IgG1 (ADCC-006 Alarmor Blue, huNK E:T 2, 0.01 ug/ml) (CD20 (human)): 33%
- % lysis - % lysis IgG1 (ADCC-013 51Cr, PBMC E:T 100, 0.001 ug/ml) (CD20 (human)): 0.35%
- % lysis (Ramos or Daudi; ADCC-012 Calcien AM, huNK E:T 10; 1 ug/ml) [5]: 66%
- % lysis - % lysis IgG1 (Ramos or Daudi; ADCC-006 Alarmor Blue, huNK E:T 2; 0.01 ug/ml) [5]: 33%
- % lysis - % lysis IgG1 (Ramos or Daudi; ADCC-013 51Cr, PBMC E:T 100; 0.001 ug/ml) [5]: 0.35%
